Laboratory results: patent US7727950B2, “Methods and reagents for assaying protein kinase activity” (The University of Dundee, priority 2002, dated 2010)

What was measured:
Experiment in all cases: Kinetic parameters for peptide phosphorylation, radioactive filter-binding assay
[1] = substrate: CC(C)C[C@H](NC(=O)[C@H](CCCNC(=N)N)NC(=O)[C@H](CCCNC(=N)N)NC(=O)[C@@H](N)CCCNC(=N)N)C(=O)N[C@@H](CO)C(=O)N[C@@H](Cc1ccccc1)C(=O)N[C@@H](C)C(=O)N[C@@H](CCC(=O)O)C(=O)N1CCC[C@H]1C(=O)NCC(=O)O; assay type: biochemical, bovine; conditions: other: PKG; Standard Substrate = …; 30.0 °C
Source text: (§1) Apart from the AMP-activated protein kinase (AMPK, a gift from Drs S. Hawley and D. G. Hardie), cGMP-dependent protein kinase (PKG, a generous gift from Drs Susan Lohmann and Ulrich Walter, University of Wurzburg, Germany) and the catalytic subunit of cyclic AMP-dependent protein kinase (PKA, a gift from Dr C. Smythe), which were isolated from rat liver, bovine lung and bovine heart, respectively, all other protein kinases were expressed as either GST-fusion or His-tagged proteins (by a person, a person, Dr A. Paterson or a person, in this Division). The expressed proteins all corresponded to the human sequences apart from the rat Rho-dependent protein kinase (ROCK-II) and rat mitogen-activated protein kinase (MAPK) activated kinase-1a (MAPKAP-K1a, also called RSK). […]
(§2) All protein kinase assays were linear with respect to time. […] All papers were subsequently washed a further three times in phosphoric acid, once in acetone, then dried and counted for radioactivity. […] The plates were then washed six times (five min per wash) in PBS, 0.1% Tween 20 and binding of the phospho-specific antibody detected by incubating the plates with peroxidase-conjugated anti-sheep antibodies (Pierce). […] Signals were quantitated on LAS-1000IR software (FujiFilm). […]

[2] = substrate: CC(C)C[C@H](NC(=O)[C@H](CCCCN)NC(=O)[C@@H](N)CCCCN)C(=O)N[C@@H](CC(N)=O)C(=O)N[C@@H](CCCNC(=N)N)C(=O)N[C@H](C(=O)N[C@@H](CC(C)C)C(=O)N[C@@H](CO)C(=O)N[C@@H](Cc1ccccc1)C(=O)N[C@@H](C)C(=O)N[C@@H](CCC(=O)O)C(=O)N1CCC[C@H]1C(=O)NCC(=O)O)[C@@H](C)O; assay type: biochemical, human; conditions: 30.0 °C
Source text: as §1, with “RSK). GST-fusion proteins were purified on GSH-agarose (Amersham Pharmacia Biotech, Amersham, UK) and His-tagged proteins on Ni-NTA agarose (Qiagen) essentially according to the manufacturer's instructions. All the protein kinases used in this study are available from Upstate Biotechnology Inc. (Lake Placid, N.Y., USA), apart from the α-isoform of calmodulin-dependent protein kinase II (CaMKII), MAPKAP-K3 and PKG.” for “RSK).”
as §2

[3] = substrate: CC(C)C[C@H](NC(=O)[C@@H](NC(=O)[C@H](CCCNC(=N)N)NC(=O)[C@H](C)NC(=O)[C@@H](N)CCCNC(=N)N)[C@@H](C)O)C(=O)N[C@@H](CO)C(=O)N[C@@H](Cc1ccccc1)C(=O)N[C@@H](C)C(=O)N[C@@H](CCC(=O)O)C(=O)N1CCC[C@H]1C(=O)NCC(=O)O; assay type: biochemical, human; conditions: other: PRAK; Standard Substrate = …; 30.0 °C
Source text: as §1, with “RSK). GST-fusion proteins were purified on GSH-agarose (Amersham Pharmacia Biotech, Amersham, UK) and His-tagged proteins on Ni-NTA agarose (Qiagen) essentially according to the manufacturer's instructions. All the protein kinases used in this study are available from Upstate Biotechnology Inc. (Lake Placid, N.Y., USA), apart from the α-isoform of calmodulin-dependent protein kinase II (CaMKII), MAPKAP-K3 and PKG.” for “RSK).”
as §2

B1: PKG (Bos taurus) (protein)
chain: MSELEEDFAKILMLKEERIKELEKRLSEKEEEIQELKRKLHKCQSVLPVPSTHIGPRTTRAQGISAEPQTYRSFHDLRQAFRKFTKSERSKDLIKEAILDNDFMKNLELSQIQEIVDCMYPVEYGKDSCIIKEGDVGSLVYVMEDGKVEVTKEGVKLCTMGPGKVFGELAILYNCTRTATVKTLVNVKLWAIDRQCFQTIMMRTGLIKHTEYMEFLKSVPTFQSLPEEILSKLADVLEETHYENGEYIIRQGARGDTFFIISKGKVNVTREDSPNEDPVFLRTLGKGDWFGEKALQGEDVRTANVIAAEAVTCLVIDRDSFKHLIGGLDDVSNKAYEDAEAKAKYEAEAAFFANLKLSDFNIIDTLGVGGFGRVELVQLKSEESKTFAMKILKKRHIVDTRQQEHIRSEKQIMQGAHSDFIVRLYRTFKDSKYLYMLMEACLGGELWTILRDRGSFEDSTTRFYTACVVEAFAYLHSKGIIYRDLKPENLILDHRGYAKLVDFGFAKKIGFGKKTWTFCGTPEYVAPEIILNKGHDISADYWSLGILMYELLTGSPPFSGPDPMKTYNIILRGIDMIEFPKKIAKNAANLIKKLCRDNPSERLGNLKNGVKDIQKHKWFEGFNWEGLRKGTLTPPIIPSVASPTDTSNFDSFPEDNDEPPPDDNSGWDIDF
notes: which were isolated from rat liver, bovine lung and bovine heart, respectively; from tissue; host or cells: bovine lung
B1 was tested, and the Km [1] was 50 µM.

B2: S6K1 (Homo sapiens; T412E) (protein)
chain: MRRRRRRDGFYPAPDFRDREAEDMAGVFDIDLDQPEDAGSEDELEEGGQLNESMDHGGVGPYELGMEHCEKFEISETSVNRGPEKIRPECFELLRVLGKGGYGKVFQVRKVTGANTGKIFAMKVLKKAMIVRNAKDTAHTKAERNILEEVKHPFIVDLIYAFQTGGKLYLILEYLSGGELFMQLEREGIFMEDTACFYLAEISMALGHLHQKGIIYRDLKPENIMLNHQGHVKLTDFGLCKESIHDGTVTHTFCGTIEYMAPEILMRSGHNRAVDWWSLGALMYDMLTGAPPFTGENRKKTIDKILKCKLNLPPYLTQEARDLLKKLLKRNAASRLGAGPGDAGEVQAHPFFRHINWEELLARKVEPPFKPLLQSEEDVSQFDSKFTRQTPVDSPDDSTLSESANQVFLGFEYVAPSVLES
notes: made in house; host or cells: Sf21 insect cells
With B2 the Km ([2]; other: S6K1, Standard Substrate = LRRASLG) was 6 µM.

B3: PRAK (Homo sapiens) (protein)
chain: MSEESDMDKAIKETSILEEYSINWTQKLGAGISGPVRVCVKKSTQERFALKILLDRPKARNEVRLHMMCATHPNIVQIIEVFANSVQFPHESSPRARLLIVMEMMEGGELFHRISQHRHFTEKQASQVTKQIALALRHCHLLNIAHRDLKPENLLFKDNSLDAPVKLCDFGFAKIDQGDLMTPQFTPYYVAPQVLEAQRRHQKEKSGIIPTSPTPYTYNKSCDLWSLGVIIYVMLCGYPPFYSKHHSRTIPKDMRRKIMTGSFEFPEEEWSQISEMAKDVVRKLLKVKPEERLTIEGVLDHPWLNSTEALDNVLPSAQLMMDKAVVAGIQQAHAEQLANMRIQDLKVSLKPLHSVNNPILRKRKLLGTKPKDSVYIHDHENGAEDSNVALEKLRDVIAQCILPQAGKGENEDEKLNEVMQEAWKYNRECKLLRDTLQSFSWNGRGFTDKVDRLKLAEIVKQVIEEQTTSHESQ
notes: as for B2
B3 was tested, and the Km [3] was 40 µM.

B4: SGK1 (Homo sapiens; S422D) (protein)
chain: ISQPQEPELMNANPSPPPSPSQQINLGPSSNPHAKPSDFHFLKVIGKGSFGKVLLARHKAEEVFYAVKVLQKKAILKKKEEKHIMSERNVLLKNVKHPFLVGLHFSFQTADKLYFVLDYINGGELFYHLQRERCFLEPRARFYAAEIASALGYLHSLNIVYRDLKPENILLDSQGHIVLTDFGLCKENIEHNSTTSTFCGTPEYLAPEVLHKQPYDRTVDWWCLGAVLYEMLYGLPPFYSRNTAEMYDNILNKPLQLKPNITNSARHLLEGLLQKDRTKRLGAKDDFMEIKSHVFFSLINWDDLINKKITPPFNPNVSGPNDLRHFDPEFTEEPVPNSIGKSPDSVLVTASVKEAAEAFLGFDYAPPTDSFL
notes: as for B2
B4 was tested, and the Km ([2]; other: SGK1, Standard Substrate = …) was 4 µM.
